Literature values, collected in paper PMC2778592.

Target: EGFR (Homo sapiens) (UniProt P00533)

For “tenascin-C Ten14 EGF-L repeat (from UniProt P24821)”, the Kd is given as 74 µM.
